Read-outs that look alike come from different tables or passages of the source.
Columns and labels:
[1] = molecular target: T1, FcγRIIIa extracellular domain with C-terminal His tag (human, UniProt P08637 17-208); assay: SPR (Biacore), ratio of KD values for FcγRIIIa
T1 construct: extracellular domain; also called FcgRIIIa; CD16A
From the text: (§1) First, it was considered which H chain should be introduced with Y296W. GpH7-TA52 (SEQ ID NO: 44) resulting from the introduction of the mutation Y296W into GpH7-TA7 was constructed, and expressed and prepared in combination with GpH7-B78 according to the method described in Reference Example 1. Furthermore, GpH7-TA58 (SEQ ID NO: 45) resulting from the introduction of Y296W into GpH7-B78 was constructed, and expressed and prepared in combination with GpH7-TA22 according to the method described in Reference Example 1. To assess the effects of combinations with Y296W, the prepared antibodies were compared for the FcγRIIIa-binding activity according to the method described in Reference Example 2 (Table 16).
(§2) Analysis of interaction between objective antibody and the FcγR was carried out using Biacore T100 (GE Healthcare). HBS-EP+ (GE Healthcare) was used as the running buffer, and the measurement temperature was set to 25° C. Chips produced by immobilizing the antigen peptide by the amine coupling method to a Series S Sencor Chip CM5 (GE Healthcare), or alternatively, chips produced by allowing preliminarily biotinylated antigen peptides to interact with and immobilize onto a Series S Sensor Chip SA (certified) (GE Healthcare) were used. Antibodies of interest were captured onto an antigen peptide-immobilized chip, and allowed to interact to each FcγR diluted with running buffer. To regenerate and repeatedly use the chip, the antibodies captured on the chip were washed off by reacting 10 mM glycine-HCl, pH 1.5.

[2] = molecular target: T1, FcγRIIIa extracellular domain with …; assay: SPR (Biacore), antibody captured, FcγRIIIa as analyte, 1:1 Langmuir kinetic fit
From the text: as §1, §2
(§3) The FcγR-binding activity of each antibody was assessed primarily using as an indicator the FcγR-binding activity and dissociation constant for FcγR.

[3] = molecular target: T1, FcγRIIIa extracellular domain with …; assay: SPR (Biacore), ratio of KD values for FcγRIIIa; remark: listed apart in the source
From the text: (§4) Then, GpH7-TA54 (SEQ ID NO: 46) resulting from the introduction of Y296W into GpH7-TA22 was constructed, and expressed and prepared in combination with GpH7-B78 according to the method described in Reference Example 1. Furthermore, GpH7-TA58 (SEQ ID NO: 45) resulting from the introduction of Y296W into GpH7-B78 was constructed, and expressed and prepared in combination with GpH7-TA22 according to the method described in Reference Example 1. To assess the effect of combination with Y296W, the prepared antibodies were compared for the FcγRIIIa-binding activity according to the method described in Reference Example 2 (Table 17).
as §2

[4] = molecular target: T1, FcγRIIIa extracellular domain with …; assay: SPR (Biacore), antibody captured, FcγRIIIa as analyte, 1:1 Langmuir kinetic fit; remark: listed apart in the source
From the text: as §4, §2, §3

T1 sequence (P08637 17-208): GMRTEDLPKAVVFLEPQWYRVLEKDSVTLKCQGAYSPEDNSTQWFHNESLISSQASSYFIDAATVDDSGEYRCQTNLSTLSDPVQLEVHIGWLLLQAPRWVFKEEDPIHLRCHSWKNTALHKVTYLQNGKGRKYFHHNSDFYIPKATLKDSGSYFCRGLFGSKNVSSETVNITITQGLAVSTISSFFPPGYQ

| Binder | KD ratio (KD of GpH7-TA7/GpH7-B78/GpL16-k0 divided by KD of the antibody) [1] [fold] | Kd [2] [nM] | KD ratio (KD of GpH7-TA22/GpH7-B78/GpL16-k0 divided by KD of the antibody) [3] [fold] | Kd [4] [nM] |
| --- | --- | --- | --- | --- |
| GpH7-TA22/GpH7-TA58/GpL16-k0 (antibody, human IgG1, kappa, Heterodimerized anti-glypican-3 IgG1 variant) heavy 1: QVQLVQSGAEVKKPGASVTVSCKASGYTFTDYEMHWIRQPPGEGLEWIGAIDPKTGDTAYSESFQDRVTLTADKSTSTAYMELSSLTSEDTAVYYCTRFYSYTYWGQGTLVTVSSASTKGPSVFPLAPSSKSTSGGTAALGCLVKDYFPEPVTVSWNSGALTSGVHTFPAVLQSSGLYSLSSVVTVPSSSLGTQTYICNVNHKPSNTKVDKKVEPKSCDKTHTCPPCPAPEYLWGPDVFLFPPKPKDTLMISRTPEVTCVVVDVSHEDPEVKFNWYVDGVEVHNAKTKPREEQYNATYRVVSVLTVLHQDWLNGKEYKCKVSNKALPAPIEKTISKAKGQPREPQVYTLPPSRKELTKNQVSLTCLVKGFYPSDIAVEWESNGQPENNYKTTPPVLDSDGSFFLYSKLTVDKSRWQQGNVFSCSVMHEALHNRYTQKSLSLSP heavy 2: QVQLVQSGAEVKKPGASVTVSCKASGYTFTDYEMHWIRQPPGEGLEWIGAIDPKTGDTAYSESFQDRVTLTADKSTSTAYMELSSLTSEDTAVYYCTRFYSYTYWGQGTLVTVSSASTKGPSVFPLAPSSKSTSGGTAALGCLVKDYFPEPVTVSWNSGALTSGVHTFPAVLQSSGLYSLSSVVTVPSSSLGTQTYICNVNHKPSNTKVDKKVEPKSCDKTHTCPPCPAPELLGGPDVFLFPPKPKDTLMISRTPEVTCVVVDVSHEDPEVKFNWYVDGVEVHNAKTKPREEQWNSTYRVVSVLTVLHQDWLNGKEYKCKVSNKALPLPEEKTISKAKGQPREPQVYTLPPSRDELTKNQVSLTCLVKGFYPSDIAVEWESNGQPENNYKTTPPVLDSDGSFFLYSKLTVDKSRWQQGNVFSCSVMHEALHNHYTQESLSLSP light: DIVMTQSPLSLPVTPGEPASISCQASESLVHSNRNTYLHWYLQKPGQSPQLLIYKVSNRFSGVPDRFSGSGSGTDFTLKISRVEAEDVGVYYCSQNTHVPPTFGQGTKVEIERTVAAPSVFIFPPSDEQLKSGTASVVCLLNNFYPREAKVQWKVDNALQSGNSQESVTEQDSKDSTYSLSSTLTLSKADYEKHKVYACEVTHQGLSSPVTKSFNRGEC | – | – | 10 | 1.3 |
| GpH7-TA52/GpH7-B78/GpL16-k0 (antibody, human IgG1, kappa, Heterodimerized anti-glypican-3 IgG1 variant) heavy 1: QVQLVQSGAEVKKPGASVTVSCKASGYTFTDYEMHWIRQPPGEGLEWIGAIDPKTGDTAYSESFQDRVTLTADKSTSTAYMELSSLTSEDTAVYYCTRFYSYTYWGQGTLVTVSSASTKGPSVFPLAPSSKSTSGGTAALGCLVKDYFPEPVTVSWNSGALTSGVHTFPAVLQSSGLYSLSSVVTVPSSSLGTQTYICNVNHKPSNTKVDKKVEPKSCDKTHTCPPCPAPEYLWGPSVFLFPPKPKDTLMISRTPEVTCVVVDVSHEDPEVKFNWYVDGVEVHNAKTKPREEQWNATYRVVSVLTVLHQDWLNGKEYKCKVSNKALPAPIEKTISKAKGQPREPQVYTLPPSRKELTKNQVSLTCLVKGFYPSDIAVEWESNGQPENNYKTTPPVLDSDGSFFLYSKLTVDKSRWQQGNVFSCSVMHEALHNRYTQKSLSLSP heavy 2: QVQLVQSGAEVKKPGASVTVSCKASGYTFTDYEMHWIRQPPGEGLEWIGAIDPKTGDTAYSESFQDRVTLTADKSTSTAYMELSSLTSEDTAVYYCTRFYSYTYWGQGTLVTVSSASTKGPSVFPLAPSSKSTSGGTAALGCLVKDYFPEPVTVSWNSGALTSGVHTFPAVLQSSGLYSLSSVVTVPSSSLGTQTYICNVNHKPSNTKVDKKVEPKSCDKTHTCPPCPAPELLGGPDVFLFPPKPKDTLMISRTPEVTCVVVDVSHEDPEVKFNWYVDGVEVHNAKTKPREEQYNSTYRVVSVLTVLHQDWLNGKEYKCKVSNKALPLPEEKTISKAKGQPREPQVYTLPPSRDELTKNQVSLTCLVKGFYPSDIAVEWESNGQPENNYKTTPPVLDSDGSFFLYSKLTVDKSRWQQGNVFSCSVMHEALHNHYTQESLSLSP light: DIVMTQSPLSLPVTPGEPASISCQASESLVHSNRNTYLHWYLQKPGQSPQLLIYKVSNRFSGVPDRFSGSGSGTDFTLKISRVEAEDVGVYYCSQNTHVPPTFGQGTKVEIERTVAAPSVFIFPPSDEQLKSGTASVVCLLNNFYPREAKVQWKVDNALQSGNSQESVTEQDSKDSTYSLSSTLTLSKADYEKHKVYACEVTHQGLSSPVTKSFNRGEC | 1.8 | 2.3 | – | – |

Now from value to binder:

| KD ratio (KD of GpH7-TA7/GpH7-B78/GpL16-k0 divided by KD of the antibody) [1] [fold] | Kd [2] [nM] | KD ratio (KD of GpH7-TA22/GpH7-B78/GpL16-k0 divided by KD of the antibody) [3] [fold] | Kd [4] [nM] | Binder |
| --- | --- | --- | --- | --- |
| 1.2 | 3.3 | – | – | GpH7-TA7/GpH7-TA58/GpL16-k0 (antibody, human IgG1, kappa, Heterodimerized anti-glypican-3 IgG1 variant) heavy 1: QVQLVQSGAEVKKPGASVTVSCKASGYTFTDYEMHWIRQPPGEGLEWIGAIDPKTGDTAYSESFQDRVTLTADKSTSTAYMELSSLTSEDTAVYYCTRFYSYTYWGQGTLVTVSSASTKGPSVFPLAPSSKSTSGGTAALGCLVKDYFPEPVTVSWNSGALTSGVHTFPAVLQSSGLYSLSSVVTVPSSSLGTQTYICNVNHKPSNTKVDKKVEPKSCDKTHTCPPCPAPEYLWGPSVFLFPPKPKDTLMISRTPEVTCVVVDVSHEDPEVKFNWYVDGVEVHNAKTKPREEQYNATYRVVSVLTVLHQDWLNGKEYKCKVSNKALPAPIEKTISKAKGQPREPQVYTLPPSRKELTKNQVSLTCLVKGFYPSDIAVEWESNGQPENNYKTTPPVLDSDGSFFLYSKLTVDKSRWQQGNVFSCSVMHEALHNRYTQKSLSLSP heavy 2: QVQLVQSGAEVKKPGASVTVSCKASGYTFTDYEMHWIRQPPGEGLEWIGAIDPKTGDTAYSESFQDRVTLTADKSTSTAYMELSSLTSEDTAVYYCTRFYSYTYWGQGTLVTVSSASTKGPSVFPLAPSSKSTSGGTAALGCLVKDYFPEPVTVSWNSGALTSGVHTFPAVLQSSGLYSLSSVVTVPSSSLGTQTYICNVNHKPSNTKVDKKVEPKSCDKTHTCPPCPAPELLGGPDVFLFPPKPKDTLMISRTPEVTCVVVDVSHEDPEVKFNWYVDGVEVHNAKTKPREEQWNSTYRVVSVLTVLHQDWLNGKEYKCKVSNKALPLPEEKTISKAKGQPREPQVYTLPPSRDELTKNQVSLTCLVKGFYPSDIAVEWESNGQPENNYKTTPPVLDSDGSFFLYSKLTVDKSRWQQGNVFSCSVMHEALHNHYTQESLSLSP light: DIVMTQSPLSLPVTPGEPASISCQASESLVHSNRNTYLHWYLQKPGQSPQLLIYKVSNRFSGVPDRFSGSGSGTDFTLKISRVEAEDVGVYYCSQNTHVPPTFGQGTKVEIERTVAAPSVFIFPPSDEQLKSGTASVVCLLNNFYPREAKVQWKVDNALQSGNSQESVTEQDSKDSTYSLSSTLTLSKADYEKHKVYACEVTHQGLSSPVTKSFNRGEC |
| – | – | 1.3 | 1 | GpH7-TA54/GpH7-B78/GpL16-k0 (antibody, human IgG1, kappa, Heterodimerized anti-glypican-3 IgG1 variant) heavy 1: QVQLVQSGAEVKKPGASVTVSCKASGYTFTDYEMHWIRQPPGEGLEWIGAIDPKTGDTAYSESFQDRVTLTADKSTSTAYMELSSLTSEDTAVYYCTRFYSYTYWGQGTLVTVSSASTKGPSVFPLAPSSKSTSGGTAALGCLVKDYFPEPVTVSWNSGALTSGVHTFPAVLQSSGLYSLSSVVTVPSSSLGTQTYICNVNHKPSNTKVDKKVEPKSCDKTHTCPPCPAPEYLWGPDVFLFPPKPKDTLMISRTPEVTCVVVDVSHEDPEVKFNWYVDGVEVHNAKTKPREEQWNATYRVVSVLTVLHQDWLNGKEYKCKVSNKALPAPIEKTISKAKGQPREPQVYTLPPSRKELTKNQVSLTCLVKGFYPSDIAVEWESNGQPENNYKTTPPVLDSDGSFFLYSKLTVDKSRWQQGNVFSCSVMHEALHNRYTQKSLSLSP heavy 2: QVQLVQSGAEVKKPGASVTVSCKASGYTFTDYEMHWIRQPPGEGLEWIGAIDPKTGDTAYSESFQDRVTLTADKSTSTAYMELSSLTSEDTAVYYCTRFYSYTYWGQGTLVTVSSASTKGPSVFPLAPSSKSTSGGTAALGCLVKDYFPEPVTVSWNSGALTSGVHTFPAVLQSSGLYSLSSVVTVPSSSLGTQTYICNVNHKPSNTKVDKKVEPKSCDKTHTCPPCPAPELLGGPDVFLFPPKPKDTLMISRTPEVTCVVVDVSHEDPEVKFNWYVDGVEVHNAKTKPREEQYNSTYRVVSVLTVLHQDWLNGKEYKCKVSNKALPLPEEKTISKAKGQPREPQVYTLPPSRDELTKNQVSLTCLVKGFYPSDIAVEWESNGQPENNYKTTPPVLDSDGSFFLYSKLTVDKSRWQQGNVFSCSVMHEALHNHYTQESLSLSP light: DIVMTQSPLSLPVTPGEPASISCQASESLVHSNRNTYLHWYLQKPGQSPQLLIYKVSNRFSGVPDRFSGSGSGTDFTLKISRVEAEDVGVYYCSQNTHVPPTFGQGTKVEIERTVAAPSVFIFPPSDEQLKSGTASVVCLLNNFYPREAKVQWKVDNALQSGNSQESVTEQDSKDSTYSLSSTLTLSKADYEKHKVYACEVTHQGLSSPVTKSFNRGEC |
